Data on one substance can be found in PMC6823450.

Where “and” joins values, the source holds several entries; their conditions need not be identical. Equal values may be shown once.

In test [1] the target is HIV-1 matrix protein p17 (wild type) (HIV-1) (UniProt P03347). Briefly: cross-linking; p17 (2 μg/ml in 20 μl) 2 h at 37 °C in PBS alone or with heparin, then 1 mM BS3 for 2 h at 37 °C; SDS-PAGE and Western blot with anti-p17; bands of 17, 34, 51 and 68 kDa quantified. (Immunoblotting shows a protein as a band on a membrane.)
The target is the same in test [2]. Briefly: SPR; p17 immobilised on a CM5 sensorchip by amine coupling (2,500 RU); free p17 (15.7-2000 nM) injected in HBS-EP (10 mM HEPES pH 7.4, 150 mM NaCl, 3 mM EDTA, 0.005% P20) for 2 min; BIAcore X 100; Kd from equilibrium RU (saturation curve, Scatchard) with two softwares; cannot tell dimer, trimer or higher oligomers apart. For orientation: Surface plasmon resonance follows binding to a sensor surface in real time, without labels.

What is called stoichiometry N is the number of molecules, sites or subunits per partner or assembly. For orientation: Kd means the constant that tells how readily two partners part at equilibrium. Higher therefore signals lower affinity. Consider “HIV-1 matrix protein p17 (wild type) (from UniProt P03347 1-132) (natural protein)”, for which, in test [1], the % of total protein as dimer came out at 29%, the % of total protein as tetramer was determined as 3%, the % of total protein as trimer worked out at 12% and the % of total protein remaining monomer was 59%. In test [1], the fold increase of dimer with heparin against no heparin is 2 fold; the fold increase of tetramer with heparin against no heparin came out at 3.4 fold; the fold increase of trimer with heparin against no heparin was found to be 4.2 fold; the stoichiometry N was 2 and 3 and 4. The Kd in test [2] is 529 nM and 665 nM.
